B1: Centrin2 (natural protein, human, UniProt P41208 1-172, looked up)
chain: MASNFKKANMASSSQRKRMSPKPELTEEQKQEIREAFDLFDADGTGTIDVKELKVAMRALGFEPKKEEIKKMISEIDKEGTGKMNFGDFLTVMTQKMSEKDTKEEILKAFKLFDDDETGKISFKNLKRVAKELGENLTDEELQEMIDEADRDGDGEVSEQEFLRIMKKTSLY
notes: Centrin2 (CETN2), human; amplified and cloned into pACEBac1; also called CETN2; CEN2; source: Sf21 insect cells (MultiBac baculovirus), co-expressed with POC5-TEV-2xFLAG, co-purified (anti-FLAG beads, SEC)
B2: POC5^Δ153-184-TEV-2xFLAG (of the POC5^Δ153-184-Centrin2 complex from insect cells) (natural protein, human, UniProt Q8NA72 1-575, looked up)
chain: MSSDEEKYSLPVVQNDSSRGSSVSSNLQEEYEELLHYAIVTPNIEPCASQSSHPKGELVPDVRISTIHDILHSQGNNSEVRETAIEVGKGCDFHISSHSKTDESSPVLSPRKPSHPVMDFFSSHLLADSSSPATNSSHTDAHEILVSDFLVSFIDWHRMEMRKEKEKHAAHLKQLCNQINELKELQKTFEISIGRKDEVISSLSHAIGKQKEKIELMRTFFHWRIGHVRARQDVYEGKLADQYYQRTLLKKVWKVWRSVVQKQWKDVVERACQARAEEVCIQISNDYEAKVAMLSGALENAKAEIQRMQHEKEHFEDSMKKAFMRGVCALNLEAMTIFQNRNDAGIDSTNNKKEEYGPGVQGKEHSAHLDPSAPPMPLPVTSPLLPSPPAAVGGASATAVPSAASMTSTRAASASSVHVPVSALGAGSAATAASEEMYVPRVVTSAQQKAGRTITARITGRCDFASKNRISSSLAIMGVSPPMSSVVVEKHHPVTVQTIPQATAAKYPRTIHPESSTSASRSLGTRSAHTQSLTSVHSIKVVD
notes: made with deletion primers from the POC5-TEV-2xFLAG CEN2 construct; source: insect cells (MultiBac baculovirus), co-expressed with Centrin2, purified (anti-FLAG beads, 3xFLAG peptide elution, SEC); not shown: 2xFLAG (after a TEV site), C-terminal, kept
B3: POC5-HA-TEV-2xFLAG (wild type POC5 of the POC5-Centrin2 complex from insect cells) (natural protein, human, UniProt Q8NA72 1-575, looked up)
chain: MSSDEEKYSLPVVQNDSSRGSSVSSNLQEEYEELLHYAIVTPNIEPCASQSSHPKGELVPDVRISTIHDILHSQGNNSEVRETAIEVGKGCDFHISSHSKTDESSPVLSPRKPSHPVMDFFSSHLLADSSSPATNSSHTDAHEILVSDFLVSDENLQKMENVLDLWSSGLKTNIISELSKWRLNFIDWHRMEMRKEKEKHAAHLKQLCNQINELKELQKTFEISIGRKDEVISSLSHAIGKQKEKIELMRTFFHWRIGHVRARQDVYEGKLADQYYQRTLLKKVWKVWRSVVQKQWKDVVERACQARAEEVCIQISNDYEAKVAMLSGALENAKAEIQRMQHEKEHFEDSMKKAFMRGVCALNLEAMTIFQNRNDAGIDSTNNKKEEYGPGVQGKEHSAHLDPSAPPMPLPVTSPLLPSPPAAVGGASATAVPSAASMTSTRAASASSVHVPVSALGAGSAATAASEEMYVPRVVTSAQQKAGRTITARITGRCDFASKNRISSSLAIMGVSPPMSSVVVEKHHPVTVQTIPQATAAKYPRTIHPESSTSASRSLGTRSAHTQSLTSVHSIKVVD
notes: POC5, human; cDNA from SinoBiological; No TEV cleavage is described; also called POC5-TEV-2xFLAG; full-length POC5; not shown: 2xFLAG (after a TEV site), C-terminal, kept

Key:
[1] = biological target: B3; experiment: mass photometry; purified POC5-Centrin2 complex (co-expressed in insect cells, FLAG affinity and SEC); 1 µl of 400 nM protein in 19 µl SEC buffer (50 mM Tris pH 7.5, 150 mM NaCl, 1 mM MgCl2); Refeyn TwoMP; conditions: both partners purified
[2] = biological target: the molecule itself; experiment: negative stain EM; purified POC5-Centrin2 complexes (co-expressed in insect cells, FLAG affinity and SEC); 3% uranyl acetate; 2D classification and low-resolution 3D reconstruction
[3] = biological target: the molecule itself; experiment: mass photometry; purified POC5-Centrin2 complex (co-expressed in insect cells, FLAG affinity and SEC); 1 µl of 400 nM protein in 19 µl SEC buffer (50 mM Tris pH 7.5, 150 mM NaCl, 1 mM MgCl2); Refeyn TwoMP

How did the “stoichiometry N” value [1] turn out when B1 was run?
Its value is ~6 Centrin2 molecules per POC5 tetramer.

Which “stoichiometry N” value [2] does the source give for B2 here?
Its value is 2.

How did the “stoichiometry N” value [3] turn out when B3 was run?
The value was 4.

Source: PMC11564547, “An interaction network of inner centriole proteins organised by POC1A-POC1B heterodimer crosslinks ensures centriolar integrity” (Nature Communications, 2024)
